The target of data set [1] is T1, Sec61β (Mus musculus, UniProt Q9CQS8).
T1 construct: endogenous in cells; host or cells: DC2.4 mouse dendritic cell line; bone marrow-derived dendritic cells
The data set is described as follows: Co-immunoprecipitation of bOVA with anti-Sec61β. The class given is binding. As for the experimental part:
(§1) 2×10^7 DC2.4 or BMDC cells were cultured for four hours in a medium containing 10 μM MG-132 in the presence of bOVA at 250 μg mL^−1. Cells were lysed in 20 mM HEPES pH7.6 containing 1% digitonin and protease inhibitors to collect biotin-labeled samples. The samples were cleared of impurities in advance using protein G sepharose (Amersham Pharmacia Biotech), and after incubation with antibodies for precipitation (anti-Sec61β, anti Sec61α, anti-VCP, anti-BiP, anti-PDI, anti-calreticulin, anti-TAP1, and anti-TAP2), the immunoprecipitates were collected using protein G. When chicken anti-CHIP antibody was used, immunoprecipitates were collected using a rabbit anti-IgY column (a person, MBL). The precipitated samples were analyzed by SDS-PAGE and Western blotting.

The target in data set [2] is T2, TAP2 (Mus musculus, UniProt P36371).
T2 construct: endogenous in cells; host or cells: DC2.4 mouse dendritic cell line
T2 sequence (P36371 1-702): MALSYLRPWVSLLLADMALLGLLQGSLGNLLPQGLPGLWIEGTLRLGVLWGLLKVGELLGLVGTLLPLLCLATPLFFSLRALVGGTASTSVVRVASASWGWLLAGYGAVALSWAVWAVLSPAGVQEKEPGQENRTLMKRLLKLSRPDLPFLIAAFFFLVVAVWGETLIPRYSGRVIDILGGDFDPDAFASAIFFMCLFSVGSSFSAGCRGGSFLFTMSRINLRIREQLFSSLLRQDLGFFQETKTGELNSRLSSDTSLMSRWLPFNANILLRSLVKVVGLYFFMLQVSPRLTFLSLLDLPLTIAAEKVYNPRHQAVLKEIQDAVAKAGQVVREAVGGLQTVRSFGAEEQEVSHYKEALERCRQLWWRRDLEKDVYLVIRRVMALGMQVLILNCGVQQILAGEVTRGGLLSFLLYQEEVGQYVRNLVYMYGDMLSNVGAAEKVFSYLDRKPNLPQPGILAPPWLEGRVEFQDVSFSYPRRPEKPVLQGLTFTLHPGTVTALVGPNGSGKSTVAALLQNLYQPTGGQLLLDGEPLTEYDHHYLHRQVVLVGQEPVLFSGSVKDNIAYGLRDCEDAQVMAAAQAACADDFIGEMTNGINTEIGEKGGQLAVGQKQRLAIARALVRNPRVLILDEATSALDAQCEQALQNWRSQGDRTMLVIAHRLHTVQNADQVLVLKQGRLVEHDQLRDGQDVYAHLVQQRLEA
T2 sequence (P21958 1-724 partner): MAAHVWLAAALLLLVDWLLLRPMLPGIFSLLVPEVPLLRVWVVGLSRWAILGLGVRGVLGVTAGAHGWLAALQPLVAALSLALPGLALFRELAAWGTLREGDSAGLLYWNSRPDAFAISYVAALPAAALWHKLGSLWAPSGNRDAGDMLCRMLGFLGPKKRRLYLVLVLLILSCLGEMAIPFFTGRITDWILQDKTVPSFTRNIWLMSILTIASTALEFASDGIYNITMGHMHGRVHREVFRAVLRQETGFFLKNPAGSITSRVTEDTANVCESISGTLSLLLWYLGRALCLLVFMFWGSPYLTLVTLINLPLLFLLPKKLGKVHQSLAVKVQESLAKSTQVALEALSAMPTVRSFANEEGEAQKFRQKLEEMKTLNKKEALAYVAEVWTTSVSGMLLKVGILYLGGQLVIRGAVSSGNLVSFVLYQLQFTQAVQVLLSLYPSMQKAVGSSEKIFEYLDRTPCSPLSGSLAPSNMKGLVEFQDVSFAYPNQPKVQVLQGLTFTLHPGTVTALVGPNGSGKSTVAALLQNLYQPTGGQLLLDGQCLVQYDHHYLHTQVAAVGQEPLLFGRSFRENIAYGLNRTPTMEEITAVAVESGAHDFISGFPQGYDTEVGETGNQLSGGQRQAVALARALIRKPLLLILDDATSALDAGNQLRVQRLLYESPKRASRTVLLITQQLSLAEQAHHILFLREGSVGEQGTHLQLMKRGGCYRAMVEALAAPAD
The experiment in a line: Co-immunoprecipitation of bOVA with anti-TAP2. The class given is binding. The following applies: DC2.4 cells incubated with bOVA. As for the experimental part:
as §1

Data set [3] has as its system DC2.4 cells. The experiment in a line: Polyubiquitination of antigen taken up by DC2.4 cells (Western blot, anti-polyubiquitin antibody). The following applies: CHIP-knocked-down DC2.4 (C4) vs parental DC2.4. The class given is cell-based, mouse. Background: A western blot detects proteins with antibodies after separation by electrophoresis.
In data set [4] the target is T3, BiP (Mus musculus, UniProt P20029).
T3 construct: BiP, an endogenous ER protein, was detected in the same microsomal fraction; endogenous in cells; host or cells: DC2.4 mouse dendritic cell line
T3 sequence (P20029 20-655): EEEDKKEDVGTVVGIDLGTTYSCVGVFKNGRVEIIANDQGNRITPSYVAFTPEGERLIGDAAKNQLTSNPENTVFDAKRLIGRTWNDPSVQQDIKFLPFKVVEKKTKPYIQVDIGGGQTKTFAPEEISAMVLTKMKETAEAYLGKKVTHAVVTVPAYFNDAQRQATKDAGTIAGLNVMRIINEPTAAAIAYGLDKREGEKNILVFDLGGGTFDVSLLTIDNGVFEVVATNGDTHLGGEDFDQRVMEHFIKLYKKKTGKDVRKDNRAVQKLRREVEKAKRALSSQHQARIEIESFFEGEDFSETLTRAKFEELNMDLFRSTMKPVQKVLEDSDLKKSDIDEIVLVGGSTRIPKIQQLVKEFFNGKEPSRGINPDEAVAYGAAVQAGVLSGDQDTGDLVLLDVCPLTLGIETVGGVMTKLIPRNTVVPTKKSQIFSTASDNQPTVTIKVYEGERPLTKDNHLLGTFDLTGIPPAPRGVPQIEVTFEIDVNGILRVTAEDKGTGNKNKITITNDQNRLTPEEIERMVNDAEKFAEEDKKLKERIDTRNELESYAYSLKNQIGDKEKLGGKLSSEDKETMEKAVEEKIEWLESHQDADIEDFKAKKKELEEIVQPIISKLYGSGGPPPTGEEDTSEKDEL
The data set is described as follows: Co-immunoprecipitation of bOVA with anti-BiP. The class given is binding. The following applies: DC2.4 cells incubated with bOVA. The method, then:
as §1

In data set [5] the test system is DC2.4 cells. The data set is described as follows: Uptake of antigen into DC2.4 cells. The class given is cell-based, mouse. The following applies: CHIP-knocked-down DC2.4 (C4 and C4F-1). From the text: When CHIP-knocked-down DC2.4 cells (C4 and C4F-1) were produced to examine the polyubiquitination of bOVA when CHIP is knocked down, the uptake of bOVA into the CHIP-knocked-down DC2.4 cells was only about 70% that of uptake into the parental DC2.4 cells (FIGS. 4d and 4f). Despite this fact, polyubiquitination of bOVA was reduced to 34% in CHIP-knocked-down cells (FIG. 4f). The decrease in the amount of accumulated OVA was slowed down in CHIP-knocked-down cells (FIGS. 4d and 4e).
Next, DC2.4 cells were incubated for a set amount of time with OVA in the presence or absence of lactacystin (LC), and OVA taken up into the cells was measured. OVA taken up into cells in the presence or absence of Hsp90 was measured similarly.

The target of data set [6] is T4, calreticulin (Mus musculus, UniProt P14211).
T4 construct: Three types of ER resident proteins; endogenous in cells; host or cells: DC2.4 mouse dendritic cell line
T4 sequence (P14211 18-416): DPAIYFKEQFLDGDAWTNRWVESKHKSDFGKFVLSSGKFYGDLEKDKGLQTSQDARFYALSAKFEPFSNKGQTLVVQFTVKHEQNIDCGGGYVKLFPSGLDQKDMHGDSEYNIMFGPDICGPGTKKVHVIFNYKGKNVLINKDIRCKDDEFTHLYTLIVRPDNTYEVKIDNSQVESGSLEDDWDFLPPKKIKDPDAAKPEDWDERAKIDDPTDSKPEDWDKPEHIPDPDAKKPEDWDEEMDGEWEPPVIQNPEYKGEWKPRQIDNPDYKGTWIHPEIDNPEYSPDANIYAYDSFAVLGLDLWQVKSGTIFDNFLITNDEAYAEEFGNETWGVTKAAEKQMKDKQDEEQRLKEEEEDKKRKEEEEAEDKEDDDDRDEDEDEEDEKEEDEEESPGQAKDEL
The data set is described as follows: Co-immunoprecipitation of bOVA with anti-calreticulin. The class given is binding. The following applies: DC2.4 cells incubated with bOVA. As for the experimental part:
as §1

For data set [7], the system named is DC2.4 cells.
Method: Intracellular localization of foreign antigens was examined by cell fractionation methods. Chicken ovalbumin (OVA) was used as an antigen model, and DC2.4 (haplotype H-2 Kb), a cultured cell line of mouse dendritic cells, was used as a model for dendritic cells. […] BMDCs with a haplotype of H-2 Kb, the same as that of DC2.4, were used as the control. BMDCs were induced from the bone marrow cells of C57BL/6 mice (SLC) in RPMI-1640 supplemented with 5% FCS using 5 ng/mL GM-CSF (MBL), and those cells purified by magnetic beads after five days of culturing were used.
DC2.4 cells made to take up bOVA antigens were suspended in 10 mM Tris-HCl (pH7.4) containing 250 mM sucrose, this was homogenized using glass beads, centrifuged for 30 minutes at 250,000×g, and then fractionated. The supernatant was used as the soluble fraction; the precipitates were suspended in the same buffer as described above and used as the microsomal fraction. A fixed amount was incubated in the presence or absence of 1% TritonX-100, and together with or without 100 μg mL^−1 trypsin. Before collecting bOVA, soybean trypsin inhibitor (Sigma) was added at 500 μg mL^−1.

T1 sequence (Q9CQS8 2-96 limits assumed): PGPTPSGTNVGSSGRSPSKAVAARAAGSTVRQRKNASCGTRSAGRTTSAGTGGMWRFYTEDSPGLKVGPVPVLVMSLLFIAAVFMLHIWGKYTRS
T1 sequence (P61620 whole entry partner): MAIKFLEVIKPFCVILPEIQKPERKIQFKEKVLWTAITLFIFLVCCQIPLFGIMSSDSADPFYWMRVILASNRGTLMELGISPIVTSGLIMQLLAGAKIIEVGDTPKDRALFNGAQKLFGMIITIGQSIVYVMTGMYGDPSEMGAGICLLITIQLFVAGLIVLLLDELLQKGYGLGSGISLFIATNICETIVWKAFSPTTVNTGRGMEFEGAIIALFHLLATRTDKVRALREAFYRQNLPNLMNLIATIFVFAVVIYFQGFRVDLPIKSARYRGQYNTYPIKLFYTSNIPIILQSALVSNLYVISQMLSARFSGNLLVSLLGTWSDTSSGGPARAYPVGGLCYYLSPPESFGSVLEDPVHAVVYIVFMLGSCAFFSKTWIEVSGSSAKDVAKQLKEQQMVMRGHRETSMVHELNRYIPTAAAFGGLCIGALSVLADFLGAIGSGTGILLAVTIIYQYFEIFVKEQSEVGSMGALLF
T1 sequence (P60060 whole entry partner): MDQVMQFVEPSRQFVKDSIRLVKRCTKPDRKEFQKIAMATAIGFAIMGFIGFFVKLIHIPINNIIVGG

B1: bOVA: biotin-labeled OVA antigen (protein)
chain: GSIGAASMEFCFDVFKELKVHHANENIFYCPIAIMSALAMVYLGAKDSTRTQINKVVRFDKLPGFGDSIEAQCGTSVNVHSSLRDILNQITKPNDVYSFSLASRLYAEERYPILPEYLQCVKELYRGGLEPINFQTAADQARELINSWVESQTNGIIRNVLQPSSVDSQTAMVLVNAIVFKGLWEKAFKDEDTQAMPFRVTEQESKPVQMMYQIGLFRVASMASEKMKILELPFASGTMSMLVLLPDEVSGLEQLESIINFEKLTEWTSSNVMEERKIKVYLPRMKMEEKYNLTSVLMAMGITDVFSSSANLSGISSAESLKISQAVHAAHAEINEAGREVVGSAEAGVDAASVSEEFRADHPFLFCIKHIATNAVLFFGRCVSP
On to B1, for which the “interaction with Sec61β (co-immunoprecipitation)” value in data set [1] (BMDCs) and in data set [1] (DC2.4 cells incubated with bOVA) was “interacts” in each case. Further, in data set [2], the “interaction with TAP2 (co-immunoprecipitation)” value is reported as “does not interact”. Besides, the “polyubiquitination of bOVA in CHIP-knocked-down cells” value in data set [3] was 34%. Moreover, the “interaction with BiP (co-immunoprecipitation)” value in data set [4] is “interacts”. The “uptake of bOVA into CHIP-knocked-down cells relative to parental DC2.4 cells” value in data set [5] was “about 70%”. Besides, the “interaction with calreticulin (co-immunoprecipitation)” value in data set [6] is “interacts”. Further, in data set [7], the “bOVA taken up by cells recovered as trypsin-resistant bOVA from the microsomal fraction” value is on record as at least 70%.

(Values after patent US20080064048A1, “Methods for Selecting Proteins that are Readily Presented as Antigens on Dendritic Cells” (Medical and Biological Laboratories, Co., Ltd., priority 2004, published 2008).)
